Laboratory results published in patent US20240240209A1, “SYNTHESIS OF ENANTIOPURE CIS-A-IRONE FROM A RENEWABLE CARBON SOURCE” (Agency for Science, Technology and Research, priority 2021, published 2024).

Test: Cell lysate reaction of pMT enzymes with psi-ionone, irones quantified by HS-SPME-GCMS
Format: biochemical
Conditions: for fold change in cis-α-irone produced: AUC vs non-mutated (=1)
Description: Using the structure of pMT1 in complex with the cofactor S-adenosyl-L-homocysteine (SAH) and the substrate teleocidin A1 (PDB id: 5GM2) as a template, pMT1 bound to each of the four isomers of α-irone was modelled with the aim of identifying amino acid residues that could be critical to increase cis-α-irone or decrease trans-α-irone production (FIGS. 2d and 2e). […] Site-directed mutagenesis of the 24 residues was carried out with degenerative primers. Subsequently, the mutants of each site were pooled together, and examined if the activity or product-selectivity of the pooled mutants were increased (FIG. 8). This reduced the number of screening reactions to 24, which is manageable when a high-throughput enzymatic assay is not available. […] One residue was chosen and subjected to site-saturation mutagenesis by using degenerative primers containing NNN or NNK. The plasmid library was then transformed into E. coli BL21 (DE3) cells and plated on agar plate containing autoinduction media^19. […] Subsequently, the colonies were collected and resuspended in phosphate saline buffer. Equal number of cells was taken for lysis and cell lysate reactions were carried out in capped SPME-GC vials at 28° C. for 2 days. HS-SPME-GCMS analysis was used to quantify the amount of irones produced by each pooled-colony reaction. […] 24 residues including the control Gly85 (G85m) were subjected to site-saturation mutagenesis, using pMT1 as the template. […] The amount of cis-α-irone produced was estimated based on the area under the gas chromatogram curve (AUC). The fold change is calculated by comparing the AUC of cis-α-irone produced by the mutant enzyme to that of non-mutated.
For each pMT mutant, it was transformed into BL21 and grown in autoinduction media with 5 mM lactose at 20° C. for 36 hrs. Then, cells were pelleted and concentrated 10 times by adding 1 ml of PBS. The OD600 was measured and 40*600 OD*ul cells were transferred into a new 1.5 ml tube. The cells were spun down and resuspended in 600 μl of lysis buffer (1×DNase buffer, 150 mM NaCl, 0.5% glycerol, 1 mg/ml lysozyme and 20U of DNasel). The cells were incubated for 2 hrs at 20° C. with shaking at 300 rpm. Following that, 2 cycles of freeze-thaw was done to completely lyse the cells. At the end of the 2nd thawing, the cell lysate was used to setup a 1 ml reaction in 2 ml GC vials. The reaction consisted of 50 mM Tris (pH7), 10 mM MgCl2, 60 mM NaCl, 0.2 mM SAM and 10 mg/L of psi-ionone and caryophyllene each. To this, 500 μl of cell lysate was added while the remaining 100 μl was used for SDS-PAGE to analyze the total and soluble protein expression. The reaction was incubated for 2 days at 28° C., 300 rpm prior to extraction of cis-α-irone with 500 μl hexane. From this, 20 μl of organic layer was taken into 180 μl hexane for GCMS analysis.
For the mutant pMT activity screening, the reactants and products were analyzed by head space solid phase microextraction (HS-SPME) coupled with an Agilent 5977B gas chromatography (GC) system equipped with Agilent DB-5 ms column (30 m×250 μm×0.25 μm) and mass spectrometry (MS) with high efficiency source. The reaction mixtures were carried out in SPME vials which were incubated at 60° C. for 20 mins to allow the release of volatile compounds. The absorbent fiber (50/30 μm divinylbenzol/carboxen/polydimethyl-SPME fiber, SUPELCO) was then exposed to the headspace of the vial for 20 mins. The extracted analytes were desorbed at the GC inlet at 250° C. for 1 min and injected into GC with a split ratio of 200:1. The GC oven temperature increased from 50° C. to 140° C. at a rate of 10° C./min and held at 140° C. for 10 min. Subsequently, the temperature was increased to 320° C. at a rate of 60° C./min and held at 320° C. for 2 mins.

B1: pMT9: pMT1 with Y200F S182E L273V L180A A202L Y65F C156A (protein)
chain: MPQEARTPQQQVTADEVGDWYDKFGEVYHLTLGESVHCGLWFPPDAPVPQDMELVTMSSQAQDRYTDYLIETLDPKAGQHLLDIGCGTGRTALKAARQRGIAVTGVAVSKEQIAAANRLAAGHGLTERLTFEVADAMRLPYEDESFDCAWAIESLAHMDRAKALGEAWRVLKPGGDLLVAEEVVTEELTEPETALFETLFALNVPPRLGEFFDIVSGAGFHTLSLKDLSANLAMTMNVFALGVYSRRAEFTERFGAEFVDGLLAGLGSAQETVIRKTRFFMATLRKPAV
modifications: Modified from pMT1
notes: pMT1 with Y200F S182E L273V L180A A202L Y65F C156A
In the case of B1, the “irone production / methyltransferase activity towards psi-ionone (in words)” value (cell lysate reaction, vs parent or control) is reported as “increased both α- and β-irone production”.

B2: pMT1_E153H: pMT1 with E153H (protein)
chain: MPQEARTPQQQVTADEVGDWYDKFGEVYHLTLGESVHCGLWFPPDAPVPQDMELVTMSSQAQDRYTDYLIETLDPKAGQHLLDIGCGTGRTALKAARQRGIAVTGVAVSKEQIAAANRLAAGHGLTERLTFEVADAMRLPYEDESFDCAWAIHSLCHMDRAKALGEAWRVLKPGGDLLVLESVVTEELTEPETALFETLYAANVPPRLGEFFDIVSGAGFHTLSLKDLSANLAMTMNVFALGVYSRRAEFTERFGAEFVDGLLAGLGSAQETLIRKTRFFMATLRKPAV
In the case of B2, the “fold change in cis-α-irone produced” value (pMT1_E153 mutants) is reported as 0.0.

B3: pMT1_R160H: pMT1 with R160H (protein)
chain: MPQEARTPQQQVTADEVGDWYDKFGEVYHLTLGESVHCGLWFPPDAPVPQDMELVTMSSQAQDRYTDYLIETLDPKAGQHLLDIGCGTGRTALKAARQRGIAVTGVAVSKEQIAAANRLAAGHGLTERLTFEVADAMRLPYEDESFDCAWAIESLCHMDHAKALGEAWRVLKPGGDLLVLESVVTEELTEPETALFETLYAANVPPRLGEFFDIVSGAGFHTLSLKDLSANLAMTMNVFALGVYSRRAEFTERFGAEFVDGLLAGLGSAQETLIRKTRFFMATLRKPAV
In the case of B3, the “fold change in cis-α-irone produced” value (pMT1_R160 mutants) is reported as 1.0.

B4: pMT1_M236G: pMT1 with M236G (protein)
chain: MPQEARTPQQQVTADEVGDWYDKFGEVYHLTLGESVHCGLWFPPDAPVPQDMELVTMSSQAQDRYTDYLIETLDPKAGQHLLDIGCGTGRTALKAARQRGIAVTGVAVSKEQIAAANRLAAGHGLTERLTFEVADAMRLPYEDESFDCAWAIESLCHMDRAKALGEAWRVLKPGGDLLVLESVVTEELTEPETALFETLYAANVPPRLGEFFDIVSGAGFHTLSLKDLSANLAMTGNVFALGVYSRRAEFTERFGAEFVDGLLAGLGSAQETLIRKTRFFMATLRKPAV
In the case of B4, the “fold change in cis-α-irone produced” value (pMT1_M236 mutants) is reported as 0.0.

B5: pMT1_E153F: pMT1 with E153F (protein)
chain: MPQEARTPQQQVTADEVGDWYDKFGEVYHLTLGESVHCGLWFPPDAPVPQDMELVTMSSQAQDRYTDYLIETLDPKAGQHLLDIGCGTGRTALKAARQRGIAVTGVAVSKEQIAAANRLAAGHGLTERLTFEVADAMRLPYEDESFDCAWAIFSLCHMDRAKALGEAWRVLKPGGDLLVLESVVTEELTEPETALFETLYAANVPPRLGEFFDIVSGAGFHTLSLKDLSANLAMTMNVFALGVYSRRAEFTERFGAEFVDGLLAGLGSAQETLIRKTRFFMATLRKPAV
In the case of B5, the “fold change in cis-α-irone produced” value (pMT1_E153 mutants) is reported as 0.0.

B6: pMT1_Y200G: pMT1 with Y200G (protein)
chain: MPQEARTPQQQVTADEVGDWYDKFGEVYHLTLGESVHCGLWFPPDAPVPQDMELVTMSSQAQDRYTDYLIETLDPKAGQHLLDIGCGTGRTALKAARQRGIAVTGVAVSKEQIAAANRLAAGHGLTERLTFEVADAMRLPYEDESFDCAWAIESLCHMDRAKALGEAWRVLKPGGDLLVLESVVTEELTEPETALFETLGAANVPPRLGEFFDIVSGAGFHTLSLKDLSANLAMTMNVFALGVYSRRAEFTERFGAEFVDGLLAGLGSAQETLIRKTRFFMATLRKPAV
For B6, the “fold change in cis-α-irone produced” value (pMT1_Y200 mutants) was 0.1.

B7: pMT1_E153G: pMT1 with E153G (protein)
chain: MPQEARTPQQQVTADEVGDWYDKFGEVYHLTLGESVHCGLWFPPDAPVPQDMELVTMSSQAQDRYTDYLIETLDPKAGQHLLDIGCGTGRTALKAARQRGIAVTGVAVSKEQIAAANRLAAGHGLTERLTFEVADAMRLPYEDESFDCAWAIGSLCHMDRAKALGEAWRVLKPGGDLLVLESVVTEELTEPETALFETLYAANVPPRLGEFFDIVSGAGFHTLSLKDLSANLAMTMNVFALGVYSRRAEFTERFGAEFVDGLLAGLGSAQETLIRKTRFFMATLRKPAV
With B7 the “fold change in cis-α-irone produced” value (pMT1_E153 mutants) was 0.0.

B8: pMT1_M236F: pMT1 with M236F (protein)
chain: MPQEARTPQQQVTADEVGDWYDKFGEVYHLTLGESVHCGLWFPPDAPVPQDMELVTMSSQAQDRYTDYLIETLDPKAGQHLLDIGCGTGRTALKAARQRGIAVTGVAVSKEQIAAANRLAAGHGLTERLTFEVADAMRLPYEDESFDCAWAIESLCHMDRAKALGEAWRVLKPGGDLLVLESVVTEELTEPETALFETLYAANVPPRLGEFFDIVSGAGFHTLSLKDLSANLAMTFNVFALGVYSRRAEFTERFGAEFVDGLLAGLGSAQETLIRKTRFFMATLRKPAV
In the case of B8, the “fold change in cis-α-irone produced” value (pMT1_M236 mutants) is reported as 0.0.

B9: pMT1_Y200H: pMT1 with Y200H (protein)
chain: MPQEARTPQQQVTADEVGDWYDKFGEVYHLTLGESVHCGLWFPPDAPVPQDMELVTMSSQAQDRYTDYLIETLDPKAGQHLLDIGCGTGRTALKAARQRGIAVTGVAVSKEQIAAANRLAAGHGLTERLTFEVADAMRLPYEDESFDCAWAIESLCHMDRAKALGEAWRVLKPGGDLLVLESVVTEELTEPETALFETLHAANVPPRLGEFFDIVSGAGFHTLSLKDLSANLAMTMNVFALGVYSRRAEFTERFGAEFVDGLLAGLGSAQETLIRKTRFFMATLRKPAV
For B9, the “fold change in cis-α-irone produced” value (pMT1_Y200 mutants) was 0.2.

B10: pMT1_R160F: pMT1 with R160F (protein)
chain: MPQEARTPQQQVTADEVGDWYDKFGEVYHLTLGESVHCGLWFPPDAPVPQDMELVTMSSQAQDRYTDYLIETLDPKAGQHLLDIGCGTGRTALKAARQRGIAVTGVAVSKEQIAAANRLAAGHGLTERLTFEVADAMRLPYEDESFDCAWAIESLCHMDFAKALGEAWRVLKPGGDLLVLESVVTEELTEPETALFETLYAANVPPRLGEFFDIVSGAGFHTLSLKDLSANLAMTMNVFALGVYSRRAEFTERFGAEFVDGLLAGLGSAQETLIRKTRFFMATLRKPAV
For B10, the “fold change in cis-α-irone produced” value (pMT1_R160 mutants) was 0.0.

B11: pMT1_M236H: pMT1 with M236H (protein)
chain: MPQEARTPQQQVTADEVGDWYDKFGEVYHLTLGESVHCGLWFPPDAPVPQDMELVTMSSQAQDRYTDYLIETLDPKAGQHLLDIGCGTGRTALKAARQRGIAVTGVAVSKEQIAAANRLAAGHGLTERLTFEVADAMRLPYEDESFDCAWAIESLCHMDRAKALGEAWRVLKPGGDLLVLESVVTEELTEPETALFETLYAANVPPRLGEFFDIVSGAGFHTLSLKDLSANLAMTHNVFALGVYSRRAEFTERFGAEFVDGLLAGLGSAQETLIRKTRFFMATLRKPAV
In the case of B11, the “fold change in cis-α-irone produced” value (pMT1_M236 mutants) is reported as 2.6.

B12: pMT1_R160G (protein)
chain: MPQEARTPQQQVTADEVGDWYDKFGEVYHLTLGESVHCGLWFPPDAPVPQDMELVTMSSQAQDRYTDYLIETLDPKAGQHLLDIGCGTGRTALKAARQRGIAVTGVAVSKEQIAAANRLAAGHGLTERLTFEVADAMRLPYEDESFDCAWAIESLCHMDGAKALGEAWRVLKPGGDLLVLESVVTEELTEPETALFETLYAANVPPRLGEFFDIVSGAGFHTLSLKDLSANLAMTMNVFALGVYSRRAEFTERFGAEFVDGLLAGLGSAQETLIRKTRFFMATLRKPAV
With B12 the “fold change in cis-α-irone produced” value (pMT1_R160 mutants) was 0.0.
